T1: DprA R123E (Riemerella anatipestifer ATCC11845, UniProt E4TBU2 1-367, R123E)
T1 sequence: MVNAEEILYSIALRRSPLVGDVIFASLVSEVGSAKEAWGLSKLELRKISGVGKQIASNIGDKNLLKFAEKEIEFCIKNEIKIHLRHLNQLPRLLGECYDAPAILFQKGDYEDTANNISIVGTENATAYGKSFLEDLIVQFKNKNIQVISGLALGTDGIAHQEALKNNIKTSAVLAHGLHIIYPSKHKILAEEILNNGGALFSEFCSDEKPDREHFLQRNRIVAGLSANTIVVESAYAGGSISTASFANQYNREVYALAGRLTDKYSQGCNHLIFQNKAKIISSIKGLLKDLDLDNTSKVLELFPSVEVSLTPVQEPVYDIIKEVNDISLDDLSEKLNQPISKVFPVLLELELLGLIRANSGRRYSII

B1: RA-ssDNA1 (ssDNA)
DNA: TAGGCTCTGCTAAGGAAGCGTGGGGTCTGTCTAAGTTGGA
B2: dsDNA annealed from RA-ssDNA1 (dsDNA)
DNA 1: B1 DNA
DNA 2: TCCAACTTAGACAGACCCCACGCTTCCTTAGCAGAGCCTA
B3: RA-ssDNA2 (ssDNA)
DNA: AAAAACTACGGAACTGACTAAAGGCAGAAAAACTAAACGG

Target: T1, DprA R123E
Assay: EMSA; up to 20 uM DprA R123E; 25 mM HEPES pH 7.0, 150 mM NaCl, 10% glycerol, 1 mM DTT, 0.05% IGEPAL, 30 min at 30 C; 8% native PAGE in 0.5x TBE on ice
Conditions: protein: recombinant, tags: C-terminal His6, chain copies: 2, label: biotin

Binder | binding result | binding result (blunt)
B1 | no binding | –
B2 | – | no binding
B3 | no binding | –

Reference: article PMC6533540, “DprA Is Essential for Natural Competence in Riemerella anatipestifer and Has a Conserved Evolutionary Mechanism”
